Drawing on patent US20140044674A1 (Hoffmann-La Roche, published 2014), this text covers Kd, koff and kon for two molecules.

Assay [1] deals with T1, human IL-10R1 ECD fused to a human Fc region, biotinylated (human, biotinylated (site not stated)).
T1 construct: Captured on a neutravidin chip; also called hu IL-10R1; IL-10 receptor 1
Nature of the assay: SPR ProteOn XPR36, 25 C; biotinylated hu IL-10R1-Fc on neutravidin chip, construct as analyte. How it is done: To measure the interaction between the antibody-IL-10 fusion constructs and the human IL-10R1, an NLC chip was used for immobilization of the biotinylated receptor (FIG. 9B). Between 400 and 1600 RU of human IL-10R1 (see SEQ ID NO: 87) were captured on the neutravidin-derivatized chip matrix along vertical channels at a concentration of 10 μg/ml and a flow rate of […] for varying contact times. Binding to biotinylated human IL10R1 was measured at six different analyte concentrations (50, 10, 2, 0.4, 0.08, 0 nM) by injections in horizontal orientation at 100 μl/min, recording the association rate for 180 s, the dissociation rate for 600 s. Running buffer (PBST) was injected along the sixth channel to provide an “in-line” blank for referencing. Association rates (kₒₙ) and dissociation rates (koff) were calculated using a simple 1:1 Langmuir binding model (ProteOn Manager software version 2.1) by simultaneously fitting the association and dissociation sensorgrams. The equilibrium dissociation constant (KD) was calculated as the ratio koff/kₒₙ. As human IL-10R1 could not be regenerated without a loss of activity, the two subsequent steps of ligand capture and analyte injection were performed channel per channel using a freshly immobilized sensorchip surface for every interaction.

For a further assay, the target named is T2, His-tagged human FAP ECD (human, UniProt Q12884 27-760).
T2 construct: also called hu FAP
Briefly: SPR ProteOn XPR36, 25 C; His-tagged FAP captured by anti-penta-His IgG, construct as analyte. Here is the method: (§1) To determine the affinities to FAP, the target protein was captured via its H6-tag by a covalently immobilized anti-H6 antibody (FIG. 9A). Briefly, anti-penta His IgG (Qiagen #34660, mouse monoclonal antibody) was immobilized at high levels (up to ˜5.000 RU) at 30 μ/min onto separate vertical channels of a GLM chip by simultaneously activating all channels for 5 min with a freshly prepared mixture of 1-ethyl-3-(3-dimethylaminopropyl)-carboiimide (EDC) and N-hydroxysuccinimide (sNHS), subsequently injecting 15 μg/ml anti-penta His IgG in 10 mM sodium acetate buffer pH 4.5 for 180 sec. Channels were blocked using a 5-min injection of ethanolamine. H6-tagged FAP from different species (see SEQ ID NOs 81, 83 and 85) was captured from a 5 μg/ml dilution in running buffer along the vertical channels for 60 s at 30 μl/min to achieve ligand densities between ˜250 and 600 RU. In a one-shot kinetic assay set-up (OSK), antibody-IL-10 fusion constructs were injected as analytes along the horizontal channels in a five-fold dilution series ranging from 50 to 0.08 nM at 100 μl/min. Association phase was recorded for 180 s, dissociation phase for 600 s. […] Running buffer (PBST) was injected along the sixth channel to provide an “in-line” blank for referencing. Association rates (kₒₙ) and dissociation rates (koff) were calculated using a simple 1:1 Langmuir binding model (ProteOn Manager software version 2.1) by simultaneously fitting the association and dissociation sensorgrams. The equilibrium dissociation constant (KD) was calculated as the ratio koff/kₒₙ.

The target of the next assay is T3, His-tagged mouse FAP ECD (mouse, UniProt P97321 27-761).
T3 construct: also called mu FAP; murine FAP
Described as above. Here is the method: as §1

Assay [2] addresses T4, His-tagged cynomolgus FAP ECD (cynomolgus, UniProt Q12884 27-760 (human entry)).
T4 construct: also called cyno FAP
Described as above. How it is done:
as §1

Usually Kd stands for a measure of binding affinity in units of concentration. Read a high Kd as a looser complex. Broadly, the koff is a measure of how fast the partners let go of each other. Higher therefore signals a short-lived complex. Broadly, the kon is the rate constant with which the complex forms. A lower kon goes with slower complex formation.

B1: 4B9 Fab-IL-10 (other)
heavy: EVQLLESGGGLVQPGGSLRLSCAASGFTFSSYAMSWVRQAPGKGLEWVSAIIGSGASTYYADSVKGRFTISRDNSKNTLYLQMNSLRAEDTAVYYCAKGWFGGFNYWGQGTLVTVSSASTKGPSVFPLAPSSKSTSGGTAALGCLVKDYFPEPVTVSWNSGALTSGVHTFPAVLQSSGLYSLSSVVTVPSSSLGTQTYICNVNHKPSNTKVDKKVEPKSCDGGGGSGGGGSGGGGSSPGQGTQSENSCTHFPGNLPNMLRDLRDAFSRVKTFFQMKDQLDNLLLKESLLEDFKGYLGCQALSEMIQFYLEEVMPQAENQDPDIKAHVNSLGENLKTLRLRLRRCHRFLPCENKSKAVEQVKNAFNKLQEKGIYKAMSEFDIFINYIEAYMTMKIRN
light: EIVLTQSPGTLSLSPGERATLSCRASQSVTSSYLAWYQQKPGQAPRLLINVGSRRATGIPDRFSGSGSGTDFTLTISRLEPEDFAVYYCQQGIMLPPTFGQGTKVEIKRTVAAPSVFIFPPSDEQLKSGTASVVCLLNNFYPREAKVQWKVDNALQSGNSQESVTEQDSKDSTYSLSSTLTLSKADYEKHKVYACEVTHQGLSSPVTKSFNRGEC
notes: also called Fab-IL-10 (clone 4B9)
Turning to B1, the Kd was 0.0212 nM in assay [1], 0.00105 nM with His-tagged human FAP ECD, 0.0234 nM with His-tagged mouse FAP ECD and 0.0175 nM in assay [2]. Moreover, the koff was determined as 4.57e-05 s⁻¹ in assay [1], 5.72e-06 s⁻¹ with His-tagged human FAP ECD, 6.27e-05 s⁻¹ in the assay with His-tagged mouse FAP ECD and 7.27e-05 s⁻¹ in assay [2]. The kon in assay [1] was determined as 2.15e+06 M⁻¹ s⁻¹; with His-tagged human FAP ECD, 5.47e+06 M⁻¹ s⁻¹; with His-tagged mouse FAP ECD it was 2.68e+06 M⁻¹ s⁻¹; in assay [2], 4.16e+06 M⁻¹ s⁻¹.

B2: 4B9 Fab-scIL-10-Fab (other)
heavy: EVQLLESGGGLVQPGGSLRLSCAASGFTFSSYAMSWVRQAPGKGLEWVSAIIGSGASTYYADSVKGRFTISRDNSKNTLYLQMNSLRAEDTAVYYCAKGWFGGFNYWGQGTLVTVSSASTKGPSVFPLAPSSKSTSGGTAALGCLVKDYFPEPVTVSWNSGALTSGVHTFPAVLQSSGLYSLSSVVTVPSSSLGTQTYICNVNHKPSNTKVDKKVEPKSCDGGGGSGGGGSGGGGSSPGQGTQSENSCTHFPGNLPNMLRDLRDAFSRVKTFFQMKDQLDNLLLKESLLEDFKGYLGCQALSEMIQFYLEEVMPQAENQDPDIKAHVNSLGENLKTLRLRLRRCHRFLPCENKSKAVEQVKNAFNKLQEKGIYKAMSEFDIFINYIEAYMTMKIRNGGGGSGGGGSGGGGSGGGGSSPGQGTQSENSCTHFPGNLPNMLRDLRDAFSRVKTFFQMKDQLDNLLLKESLLEDFKGYLGCQALSEMIQFYLEEVMPQAENQDPDIKAHVNSLGENLKTLRLRLRRCHRFLPCENKSKAVEQVKNAFNKLQEKGIYKAMSEFDIFINYIEAYMTMKIRNGGGGSGGGGSGGGGSEVQLLESGGGLVQPGGSLRLSCAASGFTFSSYAMSWVRQAPGKGLEWVSAIIGSGASTYYADSVKGRFTISRDNSKNTLYLQMNSLRAEDTAVYYCAKGWFGGFNYWGQGTLVTVSSASTKGPSVFPLAPSSKSTSGGTAALGCLVKDYFPEPVTVSWNSGALTSGVHTFPAVLQSSGLYSLSSVVTVPSSSLGTQTYICNVNHKPSNTKVDKKVEPKSCD
light: EIVLTQSPGTLSLSPGERATLSCRASQSVTSSYLAWYQQKPGQAPRLLINVGSRRATGIPDRFSGSGSGTDFTLTISRLEPEDFAVYYCQQGIMLPPTFGQGTKVEIKRTVAAPSVFIFPPSDEQLKSGTASVVCLLNNFYPREAKVQWKVDNALQSGNSQESVTEQDSKDSTYSLSSTLTLSKADYEKHKVYACEVTHQGLSSPVTKSFNRGEC
notes: also called Fab-scIL-10-Fab (clone 4B9)
For the molecule B2, the Kd is 0.0553 nM in assay [1], 0.00656 nM with His-tagged human FAP ECD, 0.0303 nM with His-tagged mouse FAP ECD and 0.00679 nM in assay [2]. The koff in assay [1] was 9.58e-05 s⁻¹; in the assay with His-tagged human FAP ECD, 3.11e-05 s⁻¹; in the assay with His-tagged mouse FAP ECD it was 7.4e-05 s⁻¹; in assay [2] it was 3.35e-05 s⁻¹. Besides, the kon in assay [1] came out at 1.73e+06 M⁻¹ s⁻¹; with His-tagged human FAP ECD, 4.74e+06 M⁻¹ s⁻¹; with His-tagged mouse FAP ECD, 2.45e+06 M⁻¹ s⁻¹; in assay [2], 4.93e+06 M⁻¹ s⁻¹.
